{
  "source": "patent US20160377619A1",
  "about": "(MEDICINAL BIOCONVERGENCE RESEARCH CENTER, published 2016)",
  "key": {"[1]": {"target": "T1, aminoacyl-tRNA-synthetase-interacting multifunctional protein 1 (AIMP1), recombinant (UniProt Q12904 1-312, limits assumed)", "T1 construct": "also called AIMP1(p43); p43", "T1 sequence (looked up)": "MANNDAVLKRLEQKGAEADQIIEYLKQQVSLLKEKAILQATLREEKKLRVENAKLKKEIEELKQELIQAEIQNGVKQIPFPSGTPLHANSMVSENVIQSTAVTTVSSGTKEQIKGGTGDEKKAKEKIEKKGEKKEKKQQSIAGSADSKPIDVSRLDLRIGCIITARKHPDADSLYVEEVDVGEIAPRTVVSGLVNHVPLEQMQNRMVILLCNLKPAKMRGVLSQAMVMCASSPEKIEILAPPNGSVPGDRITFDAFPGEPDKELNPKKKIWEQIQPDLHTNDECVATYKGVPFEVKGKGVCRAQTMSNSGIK", "assay": "Luminex multiplex bead assay, antigen coupled to beads, anti-HA-biotin and SA-PE detection", "description": "(§1) Then, 50 mg/ml S—NHS (N-hydroxysulfosuccinimide) and 50 mg/ml EDAC (1-ethy-3-[3-dimethylaminopropyl]carbodiimide) were added, followed by activation at room temperature for 20 minutes. The activated beads were washed with PBS, and then 10 μg of respective recombinant ARS antigens, that is, WRS, HRS, NRS, KRS, SRS, YRS, GRS, and AIMP1(p43), which were purified at purity of 90% or higher, were added, followed by reaction at room temperature for 2 hours. The beads linked to the respective ARS antigens were washed. two times with PBS, and then a blocking buffer was added to perform a reaction at room temperature for 30 minutes, thereby blocking unbound residues. Then, the resultant beads were washed two times with PBS, and again dispersed in 100 μl of PBS, and kept in tubes in which the light was blocked. The number of beads bound was measured and recorded by hemocytometer.\n(§2) The antibody of the present invention extracted from the periplasm was first diluted with a specimen diluent (PBST+2% BSA) to 1:400. Then, the diluted antibody was diluted 2-fold serially with a specimen diluent, and dispensed in 96 well filter plate at 50 μl for each well. Only the specimen diluent was added in the blank well without the antibody. The ARS-bound beads were put in bead mix tubes to 2000 beads per well, respectively, and the specimen diluent was put with a volume such that 50 μl of the specimen diluent could be put per well. The bead mix solution was well mixed and dispensed in each well, followed by reaction in dark room for 1 hour. After the reaction was ended, the resultant solution was washed three times with PBS (200 μl/well) using a vacuum manifold, 50 μl Anti-(HA)-biotin secondary antibody was added, followed by further reaction in dark room for 1 hour. The beads binding to the secondary antibody were washed three times with PBS, and then, for fluorescent labeling, SA-PE (Streptavidin-Phycoerythrin) was added to 2 μg/ml, followed by reaction in dark room for 30 minutes, washing three times with PBS, and again dispersion in 100 μl of PBS. The fluorescent intensity of the fluorescence-labeled beads was measured using Bio-Plex (Luminex) 200 equipment and Bio-Plex manager program, and the measurement values were analyzed to investigate the binding of the antibody to each ARS."}, "[2]": {"target": "T2, tryptophanyl-tRNA synthetase (WRS), recombinant (UniProt P23381 1-471, limits assumed)", "T2 sequence (looked up)": "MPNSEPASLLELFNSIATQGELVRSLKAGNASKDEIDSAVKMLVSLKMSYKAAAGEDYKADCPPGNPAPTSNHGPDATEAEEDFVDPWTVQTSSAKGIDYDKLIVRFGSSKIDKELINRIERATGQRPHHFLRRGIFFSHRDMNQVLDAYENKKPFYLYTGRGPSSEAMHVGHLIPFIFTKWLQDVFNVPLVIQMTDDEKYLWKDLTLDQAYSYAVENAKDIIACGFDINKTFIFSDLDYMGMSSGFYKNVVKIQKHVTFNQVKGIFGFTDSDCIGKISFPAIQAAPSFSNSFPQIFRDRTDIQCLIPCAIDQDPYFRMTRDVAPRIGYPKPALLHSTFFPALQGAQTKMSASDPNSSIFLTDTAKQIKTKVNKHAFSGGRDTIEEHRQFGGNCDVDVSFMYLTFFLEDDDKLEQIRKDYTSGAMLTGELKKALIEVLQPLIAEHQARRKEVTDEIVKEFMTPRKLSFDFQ", "assay": "Luminex multiplex bead assay, antigen coupled to beads, anti-HA-biotin and SA-PE detection", "description": "as §1, §2"}, "[3]": {"target": "T3, histidyl-tRNA synthetase (HRS), recombinant (UniProt P12081 1-509, limits assumed)", "T3 sequence (looked up)": "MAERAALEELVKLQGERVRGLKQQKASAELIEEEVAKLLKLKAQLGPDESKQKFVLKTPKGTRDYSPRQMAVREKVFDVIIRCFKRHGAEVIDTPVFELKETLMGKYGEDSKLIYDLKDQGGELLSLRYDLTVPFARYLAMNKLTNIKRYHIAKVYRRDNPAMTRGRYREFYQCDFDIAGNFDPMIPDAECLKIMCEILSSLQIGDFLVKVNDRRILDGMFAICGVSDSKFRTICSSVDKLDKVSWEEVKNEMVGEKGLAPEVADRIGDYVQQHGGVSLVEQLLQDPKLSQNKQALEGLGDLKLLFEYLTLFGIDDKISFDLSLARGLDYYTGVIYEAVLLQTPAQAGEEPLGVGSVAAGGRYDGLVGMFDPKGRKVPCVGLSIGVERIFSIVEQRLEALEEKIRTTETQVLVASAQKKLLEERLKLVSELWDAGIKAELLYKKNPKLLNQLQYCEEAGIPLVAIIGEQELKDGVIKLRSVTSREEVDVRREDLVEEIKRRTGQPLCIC", "assay": "Luminex multiplex bead assay, antigen coupled to beads, anti-HA-biotin and SA-PE detection", "description": "as §1, §2"}, "[4]": {"target": "T4, asparaginyl-tRNA synthetase (NRS), recombinant (UniProt O43776 1-548, limits assumed)", "T4 sequence (looked up)": "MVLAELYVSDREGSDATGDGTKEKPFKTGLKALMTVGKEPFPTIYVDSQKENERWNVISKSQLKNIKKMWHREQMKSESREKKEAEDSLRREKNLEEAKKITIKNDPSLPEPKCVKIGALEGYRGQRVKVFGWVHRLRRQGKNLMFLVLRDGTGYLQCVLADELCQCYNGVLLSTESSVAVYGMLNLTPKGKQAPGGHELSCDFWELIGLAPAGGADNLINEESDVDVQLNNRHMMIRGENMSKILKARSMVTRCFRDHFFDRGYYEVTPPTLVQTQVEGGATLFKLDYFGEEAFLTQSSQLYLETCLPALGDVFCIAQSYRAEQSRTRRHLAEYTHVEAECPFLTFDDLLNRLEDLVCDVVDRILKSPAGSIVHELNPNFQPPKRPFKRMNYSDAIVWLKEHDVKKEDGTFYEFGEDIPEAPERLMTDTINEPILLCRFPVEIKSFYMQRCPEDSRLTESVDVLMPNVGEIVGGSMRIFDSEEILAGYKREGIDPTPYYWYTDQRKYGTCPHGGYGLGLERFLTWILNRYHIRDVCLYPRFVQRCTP", "assay": "Luminex multiplex bead assay, antigen coupled to beads, anti-HA-biotin and SA-PE detection", "description": "as §1, §2"}, "[5]": {"target": "seryl-tRNA synthetase (SRS), recombinant (UniProt P49591 1-514, limits assumed)", "sequence (P49591 whole entry)": "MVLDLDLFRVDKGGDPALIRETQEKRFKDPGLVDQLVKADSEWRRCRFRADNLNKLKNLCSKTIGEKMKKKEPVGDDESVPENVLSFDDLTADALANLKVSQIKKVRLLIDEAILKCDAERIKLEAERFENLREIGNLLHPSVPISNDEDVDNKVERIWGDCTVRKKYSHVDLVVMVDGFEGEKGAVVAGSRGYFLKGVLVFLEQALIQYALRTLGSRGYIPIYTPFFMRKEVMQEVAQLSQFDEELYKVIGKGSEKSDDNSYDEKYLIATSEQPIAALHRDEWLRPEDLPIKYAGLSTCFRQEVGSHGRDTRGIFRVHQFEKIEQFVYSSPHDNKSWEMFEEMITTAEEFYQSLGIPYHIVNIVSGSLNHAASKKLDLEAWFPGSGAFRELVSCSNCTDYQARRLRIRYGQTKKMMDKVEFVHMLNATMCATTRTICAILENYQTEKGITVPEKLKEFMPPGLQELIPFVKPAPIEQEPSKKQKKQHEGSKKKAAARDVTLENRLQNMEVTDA", "assay": "Luminex multiplex bead assay, antigen coupled to beads, anti-HA-biotin and SA-PE detection", "description": "as §1, §2"}, "[6]": {"target": "T5, tyrosyl-tRNA synthetase (YRS), recombinant (UniProt P54577 1-528, limits assumed)", "T5 sequence (looked up)": "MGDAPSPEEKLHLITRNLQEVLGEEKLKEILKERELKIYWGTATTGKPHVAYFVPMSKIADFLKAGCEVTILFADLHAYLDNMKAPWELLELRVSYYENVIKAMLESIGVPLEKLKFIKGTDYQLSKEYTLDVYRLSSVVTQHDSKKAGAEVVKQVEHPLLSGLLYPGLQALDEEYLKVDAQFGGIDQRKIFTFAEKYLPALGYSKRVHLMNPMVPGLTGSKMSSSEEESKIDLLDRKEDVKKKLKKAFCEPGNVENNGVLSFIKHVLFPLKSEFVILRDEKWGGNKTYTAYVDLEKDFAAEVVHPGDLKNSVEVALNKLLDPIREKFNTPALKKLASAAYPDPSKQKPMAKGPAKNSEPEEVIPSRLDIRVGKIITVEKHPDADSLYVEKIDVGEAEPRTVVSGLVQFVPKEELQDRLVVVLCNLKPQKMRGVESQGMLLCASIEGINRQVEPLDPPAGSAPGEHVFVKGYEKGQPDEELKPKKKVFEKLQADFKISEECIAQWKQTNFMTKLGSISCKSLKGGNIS", "assay": "Luminex multiplex bead assay, antigen coupled to beads, anti-HA-biotin and SA-PE detection", "description": "as §1, §2"}, "[7]": {"target": "T6, glycyl-tRNA synthetase (GRS), recombinant (UniProt P41250 55-739, limits assumed)", "T6 sequence (looked up)": "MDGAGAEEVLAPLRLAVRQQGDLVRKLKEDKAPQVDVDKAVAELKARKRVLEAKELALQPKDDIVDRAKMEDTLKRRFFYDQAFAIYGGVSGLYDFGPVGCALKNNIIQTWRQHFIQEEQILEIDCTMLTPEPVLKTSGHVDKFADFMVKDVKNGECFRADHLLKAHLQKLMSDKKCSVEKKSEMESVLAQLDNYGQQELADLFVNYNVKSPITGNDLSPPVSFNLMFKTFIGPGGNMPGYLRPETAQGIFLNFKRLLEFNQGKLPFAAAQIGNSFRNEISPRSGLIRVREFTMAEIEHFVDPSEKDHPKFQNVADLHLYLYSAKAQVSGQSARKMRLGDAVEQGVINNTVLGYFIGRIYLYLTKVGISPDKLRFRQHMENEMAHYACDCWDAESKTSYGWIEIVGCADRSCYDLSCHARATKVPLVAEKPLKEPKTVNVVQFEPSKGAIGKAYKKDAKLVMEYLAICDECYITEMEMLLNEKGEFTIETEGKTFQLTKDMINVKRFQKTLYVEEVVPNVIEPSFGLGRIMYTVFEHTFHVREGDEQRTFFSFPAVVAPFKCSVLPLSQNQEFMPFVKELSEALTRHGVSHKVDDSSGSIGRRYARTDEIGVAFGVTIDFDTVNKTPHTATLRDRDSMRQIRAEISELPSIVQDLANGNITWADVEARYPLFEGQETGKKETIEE", "assay": "Luminex multiplex bead assay, antigen coupled to beads, anti-HA-biotin and SA-PE detection", "description": "as §1, §2"}, "[8]": {"target": "T7, lysyl-tRNA synthetase (KRS), recombinant (human, UniProt Q15046 1-597, limits assumed)", "T7 construct": "the construct is not described; also called KRS antigen; recombinant KRS standard material", "T7 sequence (Q15046 whole entry)": "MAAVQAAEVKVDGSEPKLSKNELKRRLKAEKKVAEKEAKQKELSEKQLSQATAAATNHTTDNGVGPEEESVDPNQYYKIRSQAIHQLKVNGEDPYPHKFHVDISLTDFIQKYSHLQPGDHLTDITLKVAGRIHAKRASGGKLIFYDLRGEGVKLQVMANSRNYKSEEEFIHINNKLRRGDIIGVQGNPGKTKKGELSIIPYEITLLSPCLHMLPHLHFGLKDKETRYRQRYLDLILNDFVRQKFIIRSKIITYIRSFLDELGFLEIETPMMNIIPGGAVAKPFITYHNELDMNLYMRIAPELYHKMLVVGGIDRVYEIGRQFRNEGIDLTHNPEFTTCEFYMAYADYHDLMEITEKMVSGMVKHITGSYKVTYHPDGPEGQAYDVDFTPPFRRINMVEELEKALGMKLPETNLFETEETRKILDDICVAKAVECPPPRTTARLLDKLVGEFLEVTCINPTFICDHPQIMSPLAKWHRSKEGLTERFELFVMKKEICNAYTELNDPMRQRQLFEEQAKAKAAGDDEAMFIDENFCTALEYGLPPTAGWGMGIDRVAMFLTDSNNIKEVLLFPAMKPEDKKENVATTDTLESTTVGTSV", "assay": "SPR (ProteOn XPR36), KRS amine-coupled to GLC chip, purified scFv injected at 500-30 nM, 25 C", "description": "The binding affinity of the antibody of the present invention to KRS antigen was measured using the ProteOnTMXPR36 SPR (surface plasmon resonance) biosensor (Bio-Rad).\nSpecifically, approximately 10 μg/ml KRS antigen was immobilized at about 2,000-4,000 response units to GLC chip (Bio-Rad 6×6 sensor chip, Compact capacity amine coupling for protein-protein interactions) according to the manufacturer's manual, and then 30 μl of the purified scFv antibody of the present invention, which was diluted with PBS to various concentrations (500-30 nM), was injected to the chip at a rate of 50 μl/min at 25° C. to quantify the interaction with the antigen. The surface of the chip was regenerated with 0.85% phosphoric acid. The association rate and dissociation rate were calculated using the ProteOn Manager software, and the equilibrium dissociation constant (KD) was calculated as a ratio of dissociation rate/association rate."}},
  "data": [
    {"binder": "anti-KRS scFv Biocon-K1 (scFv, Single clone from a human VH3-23/VL1g phage scFv library, expressed in the E. coli periplasm; Purified scFv was used in SPR and ELISA, periplasmic extract in western blot and Luminex assay; also called antibody of the present invention; anti-KRS scFv antibody; not shown: His and HA tags of the pComb3X vector are implied by Ni-NTA purification and anti-HA detection) scFv: EVQLLESGGGLVQPGGSLRLSCAASGFTFSNYAMSWVRQAPGKGLEWVSGISPSSGDTYYADSVKGRFTISRDNSKNTLYLQMNSLRAEDTAVYYCAKGVWWYHPLLFDYWGQGTLVTVSSGGGGSGGGGSGGGGSQSVLTQPPSASGTPGQRVTISCSGSSSNIGNNTVSWYQQLPGTAPKLLIYANSKRPSGVPDRFSGSKSGTSASLAISGLRSEDEADYYCGAWDSSLSGYVFGGGTKLTVL", "values": [
      {"measurement": "binding result", "setting": "[1]", "value": "no binding"},
      {"measurement": "binding result", "setting": "[2]", "value": "no binding"},
      {"measurement": "binding result", "setting": "[3]", "value": "no binding"},
      {"measurement": "binding result", "setting": "[4]", "value": "no binding"},
      {"measurement": "binding result", "setting": "[5]", "value": "no binding"},
      {"measurement": "binding result", "setting": "[6]", "value": "no binding"},
      {"measurement": "binding result", "setting": "[7]", "value": "no binding"},
      {"measurement": "Kd", "setting": "[8]", "value": 100, "unit": "nM"}
    ]}
  ]
}
